Data reported in article PMC8427768.

T1: Elk1 ETS domain (human, UniProt P19419 1-93)
T1 sequence: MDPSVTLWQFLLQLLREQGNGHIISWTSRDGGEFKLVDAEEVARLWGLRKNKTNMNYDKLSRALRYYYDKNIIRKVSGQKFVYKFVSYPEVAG

B1: SC1 (dsDNA)
DNA 1: CGGCCAAGCCGGAAGTGAGTGCC
DNA 2: GGCACTCACTTCCGGCTTGGCCG
B2: E74 (dsDNA)
DNA 1: CTGAATAACCGGAAGTAACTCATC
DNA 2: GATGAGTTACTTCCGGTTATTCAG

Target: T1, Elk1 ETS domain
Test: SPR

Binder	Kd [nM]
B1	0.06 ± 0.01
B2	0.02 ± 0.01
